These results are taken from patent US20170253660A1 (Memorial Sloan Kettering, published 2017).

Test [1] deals with T1, FcRIII 158F (UniProt P08637 17-208, limits assumed).
T1 construct: Recombinant FcR on a CM5 chip; also called FcR3A
Put plainly: SPR, BIACORE T-100; antibody flowed over recombinant FcR on CM5 chip. As to the method:
(§1) TABLE 14 Relative affinity. KD was determined by flowing antibodies over recombinant FcR on CM5 chip using BIACORE T-100. All values were normalized to hu3F8-IgG1 binding on FcRIII-158F.

In test [2] the target is T2, FcRII CD32B (UniProt P31994 46-217).
T2 construct: Recombinant FcR on a CM5 chip; also called FcR2B
T2 sequence (looked up): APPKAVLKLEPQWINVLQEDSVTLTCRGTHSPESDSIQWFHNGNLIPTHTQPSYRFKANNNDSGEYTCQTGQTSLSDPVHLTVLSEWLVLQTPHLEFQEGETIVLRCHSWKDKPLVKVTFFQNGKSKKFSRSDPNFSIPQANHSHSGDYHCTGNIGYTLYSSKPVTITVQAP
The description is as above. On the procedure: as §1

Test [3] has as its target T3, FcRII 131R (UniProt P12318 36-218).
T3 construct: Recombinant FcR on a CM5 chip; also called FcR2A
T3 sequence (looked up): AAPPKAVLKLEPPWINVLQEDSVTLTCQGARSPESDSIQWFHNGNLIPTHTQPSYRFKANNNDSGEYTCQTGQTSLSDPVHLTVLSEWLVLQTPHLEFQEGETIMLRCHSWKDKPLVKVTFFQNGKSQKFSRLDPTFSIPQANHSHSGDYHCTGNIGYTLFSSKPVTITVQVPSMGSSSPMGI
Described as above. On the procedure:
as §1

For test [4], the target named is T4, FcRIII CD16B (UniProt O75015 17-200, limits assumed).
T4 construct: Recombinant FcR on a CM5 chip
T4 sequence (O75015 17-200 limits assumed): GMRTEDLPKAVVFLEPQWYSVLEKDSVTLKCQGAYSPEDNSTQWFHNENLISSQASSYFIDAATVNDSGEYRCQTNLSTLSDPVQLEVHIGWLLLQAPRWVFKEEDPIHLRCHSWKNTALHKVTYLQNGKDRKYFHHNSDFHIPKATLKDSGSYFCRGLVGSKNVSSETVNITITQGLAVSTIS
Described as above. On the procedure: as §1

For test [5], the target named is T5, FcRII 131H (UniProt P12318 36-218).
T5 construct: Recombinant FcR on a CM5 chip; also called FcR2A
T5 sequence (looked up): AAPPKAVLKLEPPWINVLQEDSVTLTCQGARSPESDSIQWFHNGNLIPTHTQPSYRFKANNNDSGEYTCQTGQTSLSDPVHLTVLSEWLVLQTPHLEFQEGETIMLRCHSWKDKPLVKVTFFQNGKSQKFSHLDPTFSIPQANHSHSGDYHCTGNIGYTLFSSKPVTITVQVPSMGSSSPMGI
The test is described as above. As to the method: as §1

Test [6] addresses T6, FcRIII 158V (UniProt P08637 17-208).
T6 construct: Recombinant FcR on a CM5 chip; also called CD16-158V; FcR3A
Described as above. As to the method:
as §1

Test [7] addresses T7, human CD16 Fc receptor on NK92-MI cells (human, UniProt P08637 17-254). Put plainly: cell-based or functional assay.
Test [8] has as its target human CD32 Fc receptor on NK92-MI cells (human). Put plainly: cell-based or functional assay.
Test [9] addresses T7, human CD16 Fc receptor on NK92-MI cells. In words: cell-based or functional assay. This is another data set of the same source.
Test [10] concerns the target human CD32 Fc receptor on NK92-MI cells (human). Put plainly: cell-based or functional assay. The source holds these as a separate data set.
Test [11] has as its target human N-CAM (human, UniProt P13591 20-718, limits assumed). In words: Western blots and SPR (data not shown). Background: In western blotting, separated proteins are transferred to a membrane and probed.
The target in test [12] is T7, human CD16 Fc receptor on NK92-MI cells. In words: cell-based or functional assay. The source holds these as a separate data set.
The target of test [13] is human CD32 Fc receptor on NK92-MI cells (human). Put plainly: cell-based or functional assay. The source holds these as a separate data set.

T7 sequence (P08637 17-254): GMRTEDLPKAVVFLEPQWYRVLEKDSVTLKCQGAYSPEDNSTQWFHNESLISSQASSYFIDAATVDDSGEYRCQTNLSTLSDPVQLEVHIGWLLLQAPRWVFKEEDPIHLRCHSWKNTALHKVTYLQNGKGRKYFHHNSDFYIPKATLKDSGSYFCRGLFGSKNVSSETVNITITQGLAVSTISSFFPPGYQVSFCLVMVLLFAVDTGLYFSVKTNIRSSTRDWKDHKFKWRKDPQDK
T1 sequence (P08637 17-208 limits assumed): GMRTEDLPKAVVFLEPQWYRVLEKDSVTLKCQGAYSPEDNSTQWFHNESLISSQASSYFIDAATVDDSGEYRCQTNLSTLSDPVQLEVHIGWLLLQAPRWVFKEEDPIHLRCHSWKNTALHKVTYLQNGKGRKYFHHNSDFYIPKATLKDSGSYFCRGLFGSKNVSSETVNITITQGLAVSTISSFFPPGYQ
T6 sequence (P08637 17-208 F176V limits assumed): as the sequence (P08637 17-208 limits assumed) above, with F160V counted along it
human N-CAM, sequence (P13591 20-718 limits assumed): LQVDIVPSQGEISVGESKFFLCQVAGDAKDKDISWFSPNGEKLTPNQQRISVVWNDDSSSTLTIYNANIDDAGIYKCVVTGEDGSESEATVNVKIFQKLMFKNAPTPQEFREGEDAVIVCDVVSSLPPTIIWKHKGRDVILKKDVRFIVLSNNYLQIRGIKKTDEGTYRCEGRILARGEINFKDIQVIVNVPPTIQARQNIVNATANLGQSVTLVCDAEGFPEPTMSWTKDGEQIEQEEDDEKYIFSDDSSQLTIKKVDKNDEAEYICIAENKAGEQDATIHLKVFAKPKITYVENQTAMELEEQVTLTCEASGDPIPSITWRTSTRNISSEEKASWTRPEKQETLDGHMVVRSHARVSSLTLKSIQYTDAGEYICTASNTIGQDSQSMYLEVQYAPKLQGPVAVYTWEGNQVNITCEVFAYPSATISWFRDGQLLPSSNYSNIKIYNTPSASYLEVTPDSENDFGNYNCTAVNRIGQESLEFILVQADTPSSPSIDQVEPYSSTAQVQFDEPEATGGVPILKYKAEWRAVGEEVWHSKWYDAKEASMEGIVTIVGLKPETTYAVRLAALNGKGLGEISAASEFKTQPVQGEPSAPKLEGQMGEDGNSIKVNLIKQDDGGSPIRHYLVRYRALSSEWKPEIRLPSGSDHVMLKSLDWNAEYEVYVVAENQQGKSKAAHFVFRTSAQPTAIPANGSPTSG

B1: hu3F8-H1L1-IgG1 (antibody)
heavy: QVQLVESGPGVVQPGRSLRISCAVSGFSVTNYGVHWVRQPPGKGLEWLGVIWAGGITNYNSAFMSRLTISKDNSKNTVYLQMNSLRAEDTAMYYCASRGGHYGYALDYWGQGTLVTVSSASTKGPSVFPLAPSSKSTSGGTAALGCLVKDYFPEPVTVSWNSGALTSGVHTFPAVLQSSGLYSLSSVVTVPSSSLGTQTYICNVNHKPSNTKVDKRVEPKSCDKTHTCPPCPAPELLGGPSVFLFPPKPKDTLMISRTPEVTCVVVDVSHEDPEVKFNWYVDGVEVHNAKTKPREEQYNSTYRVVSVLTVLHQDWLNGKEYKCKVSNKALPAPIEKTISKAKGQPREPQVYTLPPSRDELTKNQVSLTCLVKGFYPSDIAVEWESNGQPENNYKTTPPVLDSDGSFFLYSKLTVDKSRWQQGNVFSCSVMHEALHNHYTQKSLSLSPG
light: EIVMTQTPATLSVSAGERVTITCKASQSVSNDVTWYQQKPGQAPRLLIYSASNRYSGVPARFSGSGYGTEFTFTISSVQSEDFAVYFCQQDYSSFGQGTKLEIKRTVAAPSVFIFPPSDEQLKSGTASVVCLLNNFYPREAKVQWKVDNALQSGNSQESVTEQDSKDSTYSLSSTLTLSKADYEKHKVYACEVTHQGLSSPVTKSFNRGEC
notes: Humanized 3F8, whole human IgG1 kappa, expressed in CHO-DG44; also called hu3F8-IgG1; hu3F8-IgG1-H1L1
B1: the “relative affinity (KD normalized to hu3F8-IgG1 binding on FcRIII-158F)” value was found to be 1 relative in test [1]; 0.1 relative in test [2]; 1 relative in [3]; 0.8 relative in test [4]; 2.1 relative in test [5]; 2.5 relative in [6]. Moreover, the “M14-CD16 Potency” value in test [7] was 20 relative to m3F8. Also, the “M14-CD32 Potency” value in test [8] was 31 relative to m3F8. Further, the “LAN1-CD16 Potency” value in test [9] is 12 relative to m3F8 (EC50 for 3F8/EC50 for MoAb). In addition, in test [10], the “LAN1-CD32 Potency” value was 15 relative to m3F8 (EC50 for 3F8/EC50 for MoAb). Moreover, in test [11], the binding result is recorded as “no binding”. Further, the “CD16-ADCC against melanoma M14 targets” value in test [12] was ~20 fold against m3F8 or 14G.2a. Also, the “ADCC against LAN-1 with CD32 as FcR” value in test [13] is roughly 10 fold against hu3F8-IgG1n. Besides, the “CD32-ADCC against melanoma M14 targets” value in test [13] is greater than 10 fold against m3F8.
